# According to the supplement of paper PMC10567573:
# B1: ANKRD44 (parent)
# chain: FHCIETLVTTGANVNETDDWGRTA
# B2: FLOT1 (parent)
# chain: QMAKKAEAFQLYQEAAQLDMLLEK
# Variants of: B1
# Assay: protein stability index of a GFP-peptide fusion (GPS, HEK-293T) (PSI 1-6); higher = more stable
# Conditions: c terminus: a fixed tail appended
# 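Also: lentivirally expressed fusions sorted by FACS into six bins by GFP to DsRed ratio, PSI derived from sequencing read proportions per bin multiplied by bin number.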
row,Variant,protein stability index
1,FHCAETLVTTGANVNETDDWGRTA [I4A],2.1
2,FHCVETLVTTGANVNETDDWGRTA [I4V],2.44
3,FHCYETLVTTGANVNETDDWGRTA [I4Y],1.9
4,FHCEETLVTTGANVNETDDWGRTA [I4E],3.59
5,FHCRETLVTTGANVNETDDWGRTA [I4R],2.61
6,FHCKETLVTTGANVNETDDWGRTA [I4K],2.11
7,FHCFETLVTTGANVNETDDWGRTA [I4F],2.36
8,FHCCETLVTTGANVNETDDWGRTA [I4C],2.33
9,FHCSETLVTTGANVNETDDWGRTA [I4S],2.69
10,FHCHETLVTTGANVNETDDWGRTA [I4H],2.15
11,FHCGETLVTTGANVNETDDWGRTA [I4G],2.66

# Variants of: B2
# Assay: as above
# Conditions: c terminus: a fixed tail appended
row,Variant,protein stability index
1,QMAKKAEAFQLYQEAAQLDMLPEK [L22P],3.9
2,QMAKKAEAFQLYQEAAQLDMLVEK [L22V],2.33
3,QMAKKAEAFQLYQEAAQLDMLQEK [L22Q],2.08
4,QMAKKAEAFQLYQEAAQLDMLDEK [L22D],2.54
5,QMAKKAEAFQLYQEAAQLDMLTEK [L22T],3.36
6,QMAKKAEAFQLYQEAAQLDMLKEK [L22K],3.07
7,QMAKKAEAFQLYQEAAQLDMLWEK [L22W],1.5
8,QMAKKAEAFQLYQEAAQLDMLSEK [L22S],2.63
9,QMAKKAEAFQLYQEAAQLDMLCEK [L22C],2.42
10,QMAKKAEAFQLYQEAAQLDMLIEK [L22I],1.72
11,QMAKKAEAFQLYQEAAQLDMLHEK [L22H],2.48
12,QMAKKAEAFQLYQEAAQLDMLYEK [L22Y],1.5
13,QMAKKAEAFQLYQEAAQLDMLGEK [L22G],3.76
14,QMAKKAEAFQLYQEAAQLDMLREK [L22R],2.42
15,QMAKKAEAFQLYQEAAQLDMLMEK [L22M],2.02
16,QMAKKAEAFQLYQEAAQLDMLEEK [L22E],1.61
17,QMAKKAEAFQLYQEAAQLDMLAEK [L22A],1.32
18,QMAKKAEAFQLYQEAAQLDMLNEK [L22N],2.03
19,QMAKKAEAFQLYQEAAQLDMLFEK [L22F],2.23
20,QMAKKAEAFQLYQEAAQLDMLLGK [E23G],3.26
21,QMAKKAEAFQLYQEAAQLDMLLNK [E23N],2.35

row,Variant,protein stability index
1,QMAKKAEAFQLYQEAAQLDMLLIK [E23I],1.62
2,QMAKKAEAFQLYQEAAQLDMLLSK [E23S],2.53
3,QMAKKAEAFQLYQEAAQLDMLLPK [E23P],3.12
4,QMAKKAEAFQLYQEAAQLDMLLWK [E23W],1.98
5,QMAKKAEAFQLYQEAAQLDMLLRK [E23R],1.39
6,QMAKKAEAFQLYQEAAQLDMLLFK [E23F],1.72
7,QMAKKAEAFQLYQEAAQLDMLLDK [E23D],3.79
8,QMAKKAEAFQLYQEAAQLDMLLKK [E23K],2.11
9,QMAKKAEAFQLYQEAAQLDMLLLK [E23L],2.21
10,QMAKKAEAFQLYQEAAQLDMLLTK [E23T],1.51
11,QMAKKAEAFQLYQEAAQLDMLLVK [E23V],1.98
12,QMAKKAEAFQLYQEAAQLDMLLMK [E23M],1.28
13,QMAKKAEAFQLYQEAAQLDMLLCK [E23C],2.27
14,QMAKKAEAFQLYQEAAQLDMLLQK [E23Q],1.75
15,QMAKKAEAFQLYQEAAQLDMLLYK [E23Y],1.81
16,QMAKKAEAFQLYQEAAQLDMLLHK [E23H],2.15
17,QMAKKAEAFQLYQEAAQLDMLLAK [E23A],2.29
18,QMAKKAEAFQLYQEAAQLDMLLET [K24T],3.03
19,QMAKKAEAFQLYQEAAQLDMLLEN [K24N],2.83
20,QMAKKAEAFQLYQEAAQLDMLLEH [K24H],2.67
21,QMAKKAEAFQLYQEAAQLDMLLEC [K24C],2.28

row,Variant,protein stability index
1,QMAKKAEAFQLYQEAAQLDMLLEY [K24Y],2.35
2,QMAKKAEAFQLYQEAAQLDMLLEI [K24I],3.41
3,QMAKKAEAFQLYQEAAQLDMLLES [K24S],3.36
4,QMAKKAEAFQLYQEAAQLDMLLEG [K24G],2.89
5,QMAKKAEAFQLYQEAAQLDMLLED [K24D],3.76
6,QMAKKAEAFQLYQEAAQLDMLLEQ [K24Q],2.55
7,QMAKKAEAFQLYQEAAQLDMLLEL [K24L],2.08
8,QMAKKAEAFQLYQEAAQLDMLLEE [K24E],4.03
9,QMAKKAEAFQLYQEAAQLDMLLEM [K24M],2.23
10,QMAKKAEAFQLYQEAAQLDMLLEF [K24F],2.2
11,QMAKKAEAFQLYQEAAQLDMLLER [K24R],2.13
12,QMAKKAEAFQLYQEAAQLDMLLEA [K24A],2.53
13,QMAKKAEAFQLYQEAAQLDMLLEP [K24P],3.37
14,QMAKKAEAFQLYQEAAQLDMLLEV [K24V],1.73
15,QMAKKAEAFQLYQEAAQLDMLLEW [K24W],2.57
16,QMAKKAEAFQLYQEAAQLDMDLEK [L21D],2.58
17,QMAKKAEAFQLYQEAAQLDMWLEK [L21W],1.69
18,QMAKKAEAFQLYQEAAQLDMYLEK [L21Y],2.04
19,QMAKKAEAFQLYQEAAQLDMPLEK [L21P],4.51
20,QMAKKAEAFQLYQEAAQLDMFLEK [L21F],2.35
21,QMAKKAEAFQLYQEAAQLDMNLEK [L21N],3.38

row,Variant,protein stability index
1,QMAKKAEAFQLYQEAAQLDMCLEK [L21C],2.9
2,QMAKKAEAFQLYQEAAQLDMMLEK [L21M],1.84
3,QMAKKAEAFQLYQEAAQLDMTLEK [L21T],2.97
4,QMAKKAEAFQLYQEAAQLDMALEK [L21A],2.09
5,QMAKKAEAFQLYQEAAQLDMSLEK [L21S],3.46
6,QMAKKAEAFQLYQEAAQLDMELEK [L21E],2.7
7,QMAKKAEAFQLYQEAAQLDMRLEK [L21R],3.19
8,QMAKKAEAFQLYQEAAQLDMILEK [L21I],2
9,QMAKKAEAFQLYQEAAQLDMHLEK [L21H],3.47
10,QMAKKAEAFQLYQEAAQLDMKLEK [L21K],2.19
11,QMAKKAEAFQLYQEAAQLDMGLEK [L21G],4.02
12,QMAKKAEAFQLYQEAAQLDMQLEK [L21Q],1.75
13,QMAKKAEAFQLYQEAAQLDMVLEK [L21V],2.35
14,QMAKKAEAFQLYQEAAQLDVLLEK [M20V],2.38
15,QMAKKAEAFQLYQEAAQLDYLLEK [M20Y],2.08
16,QMAKKAEAFQLYQEAAQLDRLLEK [M20R],2.98
17,QMAKKAEAFQLYQEAAQLDTLLEK [M20T],3.22
18,QMAKKAEAFQLYQEAAQLDQLLEK [M20Q],3.1
19,QMAKKAEAFQLYQEAAQLDSLLEK [M20S],3.69
20,QMAKKAEAFQLYQEAAQLDPLLEK [M20P],4.52
